Results taken from patent US6448390.

Target: amphotropic retrovirus receptor, endogenous on human 293 cells (human) (UniProt Q08357)
Test: cell-based or functional assay

Chain of UniProt Q08357 (Q08357 whole entry): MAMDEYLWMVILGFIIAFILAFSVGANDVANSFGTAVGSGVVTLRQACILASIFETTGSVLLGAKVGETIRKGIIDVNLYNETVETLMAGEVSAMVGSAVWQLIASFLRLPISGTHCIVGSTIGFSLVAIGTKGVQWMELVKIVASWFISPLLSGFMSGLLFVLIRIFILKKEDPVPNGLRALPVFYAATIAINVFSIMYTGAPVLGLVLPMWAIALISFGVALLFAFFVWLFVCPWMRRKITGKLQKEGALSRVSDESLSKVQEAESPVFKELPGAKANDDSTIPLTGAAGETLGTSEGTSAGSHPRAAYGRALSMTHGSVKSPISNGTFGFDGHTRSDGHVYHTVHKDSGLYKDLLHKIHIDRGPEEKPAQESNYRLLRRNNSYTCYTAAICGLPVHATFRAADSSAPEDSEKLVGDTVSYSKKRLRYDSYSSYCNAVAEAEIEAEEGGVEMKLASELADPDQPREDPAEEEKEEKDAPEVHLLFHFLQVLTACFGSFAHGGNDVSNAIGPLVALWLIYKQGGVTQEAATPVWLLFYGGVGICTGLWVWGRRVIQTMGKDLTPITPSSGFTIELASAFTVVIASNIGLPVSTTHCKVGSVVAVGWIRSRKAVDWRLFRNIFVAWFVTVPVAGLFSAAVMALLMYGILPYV

Substance: ampho/eco+Q227R/D243Y fusion envelope protein: residues 1-208 of amphotropic 4070A envelope protein fused between Serine 6 and Proline 7 of MoMLV mutant envelope protein Q227R/D243Y
- delivery of the lacZ gene (infectious titer) to human 293 cells expressing the amphotropic receptor but not the ecotropic receptor: 1000 fold
